# Assay results reported in patent US20160185837A1 (Medimmune Limited, priority 2013, published 2016).
# Changes are numbered by the printed parent chain.
# T1: mouse GLP-1 receptor (mGLP-1r) (Mus musculus, UniProt O35659)
# T1 construct: expressed in transfected cells; host or cells: HEK293s or CHO cells
# T1 sequence (O35659 22-463): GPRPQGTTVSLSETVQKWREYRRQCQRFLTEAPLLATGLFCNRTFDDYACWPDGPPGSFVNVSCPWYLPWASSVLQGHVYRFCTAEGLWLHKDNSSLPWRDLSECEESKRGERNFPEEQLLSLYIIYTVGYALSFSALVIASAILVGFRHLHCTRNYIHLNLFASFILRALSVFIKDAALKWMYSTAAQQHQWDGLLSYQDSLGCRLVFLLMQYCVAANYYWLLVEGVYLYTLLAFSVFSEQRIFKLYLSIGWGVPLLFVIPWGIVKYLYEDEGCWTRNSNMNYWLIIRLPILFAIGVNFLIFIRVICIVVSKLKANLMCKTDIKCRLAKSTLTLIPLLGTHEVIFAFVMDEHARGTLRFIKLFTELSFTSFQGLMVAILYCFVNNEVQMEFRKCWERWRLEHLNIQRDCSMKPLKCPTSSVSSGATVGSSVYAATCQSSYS
# T2: rat GLP-1 receptor (rGLP-1r) (Rattus norvegicus, UniProt P32301)
# T2 construct: expressed in transfected cells; host or cells: HEK293s or CHO cells
# T2 sequence (P32301 22-463): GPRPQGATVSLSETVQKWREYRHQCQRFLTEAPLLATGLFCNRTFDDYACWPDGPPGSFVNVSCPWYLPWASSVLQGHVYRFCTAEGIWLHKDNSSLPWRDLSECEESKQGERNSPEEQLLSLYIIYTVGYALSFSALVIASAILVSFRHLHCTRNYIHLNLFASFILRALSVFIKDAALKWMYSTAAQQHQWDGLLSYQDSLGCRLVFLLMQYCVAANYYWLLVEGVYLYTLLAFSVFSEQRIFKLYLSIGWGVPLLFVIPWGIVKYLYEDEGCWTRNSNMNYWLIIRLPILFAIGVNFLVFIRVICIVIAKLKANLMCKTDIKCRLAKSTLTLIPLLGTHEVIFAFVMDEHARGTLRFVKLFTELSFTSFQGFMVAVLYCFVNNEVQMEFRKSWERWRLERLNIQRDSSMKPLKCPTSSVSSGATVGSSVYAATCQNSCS
# T3: mouse GIP receptor (mGIPr) (Mus musculus, UniProt Q0P543)
# T3 construct: expressed in transfected cells; host or cells: HEK293s or CHO cells
# T3 sequence (Q0P543 19-460): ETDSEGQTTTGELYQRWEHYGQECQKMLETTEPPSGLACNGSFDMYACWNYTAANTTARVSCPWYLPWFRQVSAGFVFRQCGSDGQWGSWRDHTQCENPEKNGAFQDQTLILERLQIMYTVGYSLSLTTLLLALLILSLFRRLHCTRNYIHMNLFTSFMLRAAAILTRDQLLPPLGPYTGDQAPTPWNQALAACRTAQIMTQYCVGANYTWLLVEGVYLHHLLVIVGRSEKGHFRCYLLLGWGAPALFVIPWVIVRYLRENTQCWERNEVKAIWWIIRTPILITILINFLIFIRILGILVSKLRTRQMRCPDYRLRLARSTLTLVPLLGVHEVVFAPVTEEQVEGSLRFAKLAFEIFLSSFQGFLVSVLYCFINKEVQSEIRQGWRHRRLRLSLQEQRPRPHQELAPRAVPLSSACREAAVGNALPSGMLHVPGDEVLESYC
# T4: rat GIP receptor (rGIPr) (Rattus norvegicus, UniProt P43219)
# T4 construct: expressed in transfected cells; host or cells: HEK293s or CHO cells
# T4 sequence (P43219 19-455): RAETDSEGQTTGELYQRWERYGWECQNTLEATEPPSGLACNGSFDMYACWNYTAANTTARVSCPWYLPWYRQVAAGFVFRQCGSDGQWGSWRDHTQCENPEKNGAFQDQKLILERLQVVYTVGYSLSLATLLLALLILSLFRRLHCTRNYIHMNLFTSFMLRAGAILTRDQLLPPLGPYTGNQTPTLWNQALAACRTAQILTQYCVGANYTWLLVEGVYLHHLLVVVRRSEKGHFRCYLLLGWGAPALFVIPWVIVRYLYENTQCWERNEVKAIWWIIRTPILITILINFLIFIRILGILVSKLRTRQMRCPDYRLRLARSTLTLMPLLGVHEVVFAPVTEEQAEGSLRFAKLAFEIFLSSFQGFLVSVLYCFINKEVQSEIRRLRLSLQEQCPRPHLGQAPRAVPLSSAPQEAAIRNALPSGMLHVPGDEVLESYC
# T5: human GIP receptor (hGIPr) (Homo sapiens, UniProt P48546)
# T5 construct: expressed in transfected cells
# T5 sequence (P48546 22-466): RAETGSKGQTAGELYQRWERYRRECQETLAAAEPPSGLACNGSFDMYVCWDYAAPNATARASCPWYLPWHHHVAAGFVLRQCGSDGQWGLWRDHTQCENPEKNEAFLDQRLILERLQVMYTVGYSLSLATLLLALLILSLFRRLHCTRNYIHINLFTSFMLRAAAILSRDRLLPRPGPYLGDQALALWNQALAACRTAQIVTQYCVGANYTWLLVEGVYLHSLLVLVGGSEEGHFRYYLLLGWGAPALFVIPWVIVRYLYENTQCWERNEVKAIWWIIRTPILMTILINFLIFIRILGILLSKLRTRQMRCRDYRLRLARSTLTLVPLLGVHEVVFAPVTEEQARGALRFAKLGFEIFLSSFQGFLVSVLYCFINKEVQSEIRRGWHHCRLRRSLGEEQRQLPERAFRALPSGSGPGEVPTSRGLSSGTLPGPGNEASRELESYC
# B1: IP246: Fc fusion, IgG1-TM, SEQ ID NO:116; agonist peptide YSEGTFTSDYSKLLEGQAAKLFIEWLVKGP (protein)
# chain: YSEGTFTSDYSKLLEGQAAKLFIEWLVKGPAAAGGSGSTASSGSGSATGGGGAATHTCPPCPAPEF
# modifications: also: Fc fusion, IgG1-TM
# notes: agonist peptide YSEGTFTSDYSKLLEGQAAKLFIEWLVKGP
# B2: IP247: Fc fusion, IgG1-TM, SEQ ID NO:117; agonist peptide YSEGTFTSDYSKLLEKIHQQLFIEWLVKGP (protein)
# chain: B1 chain with G16K, Q17I, A18H, A19Q, K20Q
# modifications: also: Fc fusion, IgG1-TM
# notes: agonist peptide YSEGTFTSDYSKLLEKIHQQLFIEWLVKGP
# B3: IP351 (protein)
# chain: YSEGTFISDYSIAMDKIHQQDFVNWLLAQKPSSGAPPPSGGGGSGGGGSGGGGSGGGGSACPPC
# B4: IP321 (protein)
# chain: YSEGTFISDYSIAMDKIHQQDFVNWLLAGGAAAGGSGSTASSGSGSATGGGGAATHTCPPC
# B5: IP373 (protein)
# chain: YSEGTHTSDFSKLLERQAIDEFIAWLLKGGAAAGGSGSTASSGSGSATGGGGAATHTCPPC
# B6: IP375 (protein)
# chain: B5 chain with D9L
# B7: IP401 (protein)
# chain: B5 chain with F10L
# B8: IP376 (protein)
# chain: B5 chain with H6F, D9L
# Target: T6, human GLP-1 receptor (hGLP-1r) (Homo sapiens, UniProt P43220)
# T6 construct: expressed in transfected cells
# Assay: BSA-cAMP assay, cells expressing human GLP-1 receptor
# Type: cell-based
# Conditions: BSA-cAMP assay; batch 1 unless a batch is given; read-out: cAMP activity hGLP1r (EC50)
# Summary of the method: (§1)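 EC50 came from an unconstrained 4-parameter logistic fit of HTRF cAMP data expressed as percent of maximal native agonist activation, tested on two occasions. Thawed receptor-expressing cells (hGLP-1r, hGIPr at 0.5×10^5 cells/ml) treated 30 min at room temperature in 0.1% BSA-containing medium; two distinct hGIPr lines.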
# T6 sequence (P43220 24-463): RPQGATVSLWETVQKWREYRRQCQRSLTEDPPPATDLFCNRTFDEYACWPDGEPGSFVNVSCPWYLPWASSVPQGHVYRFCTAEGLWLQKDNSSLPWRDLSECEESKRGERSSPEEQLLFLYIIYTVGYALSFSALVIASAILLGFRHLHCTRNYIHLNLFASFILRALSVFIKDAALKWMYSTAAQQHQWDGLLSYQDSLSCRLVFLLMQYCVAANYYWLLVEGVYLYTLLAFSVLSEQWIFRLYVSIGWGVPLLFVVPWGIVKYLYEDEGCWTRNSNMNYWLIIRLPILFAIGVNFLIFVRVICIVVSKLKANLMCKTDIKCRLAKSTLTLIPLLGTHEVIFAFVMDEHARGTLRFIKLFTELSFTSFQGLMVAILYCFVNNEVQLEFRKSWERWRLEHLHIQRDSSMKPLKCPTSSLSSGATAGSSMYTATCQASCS
row,Molecule,EC50 [nM]
1,B1,0.65
2,B2,63

# Same assay, conditions: Batch 1; BSA-cAMP assay; read-out: hGLP1r cAMP activity EC50
row,Molecule,EC50 [nM]
1,B3,110
2,B4,72
3,B5,0.72
4,B6,4
5,B7,0.35
6,B8,2.4

# Target: T1, mouse GLP-1 receptor (mGLP-1r)
# Assay: BSA-cAMP assay, cells expressing mouse GLP-1 receptor
# Type: cell-based
# Conditions: BSA-cAMP assay; read-out: cAMP activity mGLP1r (EC50)
# Procedure: (§2) One basic cAMP assays was performed, differing in the medium used for the assay, the “BSA-cAMP assay”:
# (§3) BSA-based assay medium: 0.1% bovine serum albumin (BSA) in
# (§4) In certain aspects, the assay can also be carried out in medium supplemented with serum albumin that corresponds to the receptor being tested, e.g., human serum albumin for testing cAMP activity at hGIPr or hGLP-1r, rat serum albumin for testing cAMP activity at rGIPr or rGLP-1r, and so on. […] All sample dilutions were made in duplicate.
# (§5) A frozen cryo-vial of cells expressing the receptor of interest was thawed rapidly in a water-bath, transferred to pre-warmed assay media and spun at 240×g for 5 minutes. Cells were re-suspended in assay buffer at an optimized concentration (e.g., hGLP-1r and hGIPr cells at 0.5×10^5 cells/ml).
# (§6) To this, 5 μL cell suspension was added and the plates incubated at room temperature for 30 minutes.
# (§7) cAMP levels were measured using a commercially available cAMP dynamic 2 HTRF kit (Cisbio, Cat #62AM4PEJ), following the two step protocol as per manufacturer's recommendations. In brief; anti-cAMP cryptate (donor fluorophore) and cAMP-d2 (acceptor fluorophore) were made up separately by diluting each 1/20 in conjugate & lysis buffer provided in the kit. 5 μL anti-cAMP cryptate was added to all wells of the assay plate, and 5 μL cAMP-d2 added to all wells except non-specific binding (NSB) wells, to which conjugate and lysis buffer was added. […] Data was transformed to % Delta F as described in manufacturer's guidelines and then transformed to percent activation of maximal native agonist response and analysed by 4-parameter logistic fit to determine EC50 values.
# (§8) We used unconstrained 4 parameter logistic fit of data, curve mid-point to determine EC50. This was tested on two occasions, not two batches.
# (§9) In order to be able to carry out in vivo studies in rodents, IP088 was tested for potency against the mouse receptors mGIPr and mGLP-1r as well as the rat receptors rGIPr and rGLP-1r, using cells expressing the respective receptors in the cAMP assay described above.
row,Molecule,EC50 [nM]
1,B1,3.2
2,B2,280

# Same assay, conditions: Batch 1; BSA-cAMP assay; read-out: mGLP1r cAMP activity EC50
row,Molecule,EC50 [nM]
1,B3,820
2,B4,330
3,B5,9.2
4,B6,49
5,B7,13
6,B8,21

# Target: T2, rat GLP-1 receptor (rGLP-1r)
# Assay: BSA-cAMP assay, cells expressing rat GLP-1 receptor
# Type: cell-based
# Conditions: BSA-cAMP assay; read-out: cAMP activity rGLP1r (EC50)
# Procedure: as §2, §3, §4, §5, §6, §7, §8, §9
row,Molecule,EC50 [nM]
1,B1,0.072
2,B2,11

# Same assay, conditions: Batch 1; BSA-cAMP assay; read-out: rGLP1r cAMP activity EC50
row,Molecule,EC50 [nM]
1,B3,210
2,B4,22
3,B5,0.9
4,B6,3.9
5,B7,0.073
6,B8,1.3

# Target: T3, mouse GIP receptor (mGIPr)
# Assay: BSA-cAMP assay, cells expressing mouse GIP receptor
# Type: cell-based
# Conditions: BSA-cAMP assay; read-out: cAMP activity mGIPr (EC50)
# Procedure: as §2, §3, §4, §5, §6, §7, §8, §9
row,Molecule,EC50 [nM]
1,B1,260
2,B2,2.3

# Same assay, conditions: Batch 1; BSA-cAMP assay; read-out: mGIPr cAMP activity EC50
row,Molecule,EC50 [nM]
1,B3,0.0098
2,B4,0.017
3,B5,3.2
4,B6,0.65
5,B7,3.6
6,B8,0.55

# Target: T4, rat GIP receptor (rGIPr)
# Assay: BSA-cAMP assay, cells expressing rat GIP receptor
# Type: cell-based
# Conditions: BSA-cAMP assay; read-out: cAMP activity rGIPr (EC50)
# Procedure: as §2, §3, §4, §5, §6, §7, §8, §9
row,Molecule,EC50 [nM]
1,B1,10
2,B2,0.03

# Same assay, conditions: Batch 1; BSA-cAMP assay; read-out: rGIPr cAMP activity EC50
row,Molecule,EC50 [nM]
1,B3,0.0063
2,B4,0.0079
3,B5,0.035
4,B6,0.07
5,B7,0.014
6,B8,0.13

# Target: T7, human glucagon receptor (GCGr) (Homo sapiens, UniProt P47871)
# T7 construct: expressed in transfected cells; host or cells: HEK293s or CHO cells
# Assay: BSA-cAMP assay, cells expressing human glucagon receptor
# Type: cell-based
# Conditions: Batch 1, read-out: hGCGr cAMP activity EC50
# Procedure: as §2, §3, §4, §5, §6, §7, §8
# T7 sequence (P47871 26-477): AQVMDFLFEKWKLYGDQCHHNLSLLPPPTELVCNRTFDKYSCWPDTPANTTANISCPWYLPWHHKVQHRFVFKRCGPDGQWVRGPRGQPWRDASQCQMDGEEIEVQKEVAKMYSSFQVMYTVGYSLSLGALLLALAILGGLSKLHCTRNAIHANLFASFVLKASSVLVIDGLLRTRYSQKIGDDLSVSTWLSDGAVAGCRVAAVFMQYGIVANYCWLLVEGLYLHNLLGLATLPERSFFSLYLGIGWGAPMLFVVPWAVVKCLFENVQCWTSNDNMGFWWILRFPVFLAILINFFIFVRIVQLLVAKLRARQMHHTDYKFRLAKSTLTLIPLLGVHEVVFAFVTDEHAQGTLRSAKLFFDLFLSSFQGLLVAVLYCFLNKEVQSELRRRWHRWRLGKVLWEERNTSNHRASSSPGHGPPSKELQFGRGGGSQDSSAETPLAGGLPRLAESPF
row,Molecule,EC50 [nM]
1,B3,130
2,B4,24
3,B5,> 6790
4,B6,> 11700
5,B7,3100
6,B8,> 7430

# Same assay, conditions: batch 1 unless a batch is given, read-out: cAMP activity hGCGr (EC50)
row,Molecule,EC50 [nM]
1,B1,> 1400
2,B2,> 420

# Target: T5, human GIP receptor (hGIPr)
# Assay: BSA-cAMP assay, cells expressing human GIP receptor
# Type: cell-based
# Conditions: BSA-cAMP assay; batch 1 unless a batch is given; read-out: cAMP activity hGIPr (EC50)
# Summary of the method: as §1
row,Molecule,EC50 [nM]
1,B1,2.2
2,B2,0.019

# Same assay, conditions: Batch 1; BSA-cAMP assay; read-out: hGIPr cAMP activity EC50
row,Molecule,EC50 [nM]
1,B3,0.0036
2,B4,0.0096
3,B5,0.0054
4,B6,0.078
5,B7,3.5
6,B8,0.083
